Assay [1] addresses spike of variant P.1 v1 on pseudovirus. In words: cell-based or functional assay.
Assay [2] deals with full-length spike B.1.617.2 (SARS-CoV-2) (UniProt P0DTC2). The assay can be described thus: cell-based or functional assay.

With CB6 (antibody), the neutralization IC50 in assay [1] was above 10 µg/mL.
LY-CoV555 (antibody) displayed a neutralization IC50 in assay [1] above 10 µg/mL. This substance yielded a pseudotyped virus neutralization in assay [2] above 10000 ng/mL.
The substance REGN10987 (antibody) registered a neutralization, fold reduction in activity in assay [2] of 4 fold.

For the origin of these results see patent publication US20240117011A1.
